Measurements: patent US20230140435

Biological target: free tubulin (tubulin dimers) of isolated rat cardiomyocytes

| Protein | free:polymerized tubulin ratio (microtubule fractionation assay, western blot, isolated rat cardiomyocytes) |
| --- | --- |
| tubulin tyrosine ligase (TTL) (protein) MYTFVVRDENSSVYAEVSRLLLATGHWKRLRRDNPRFNLMLGERNRLPFGRLGHEPGLVQLVNYYRGADKLCRKASLVKLIKTSPELAESCTWFPESYVIYPTNLKTPVAPAQNGIQPPISNSRTDEREFFLASYNRKKEDGEGNVWIAKSSAGAKGEGILISSEASELLDFIDNQGQVHVIQKYLEHPLLLEPGHRKFDIRSWVLVDHQYNIYLYREGVLRTASEPYHVDNFQDKTCHLTNHCIQKEYSKNYGKYEEGNEMFFKEFNQYLTSALNITLESSILLQIKHIIRNCLLSVEPAISTKHLPYQSFQLFGFDFMVDEELKVWLIEVNGAPACAQKLYAELCQGIVDIAISSVFPPPDVEQPQTQPAAFIKL | Both TTL and TTL-E331Q overexpression increased the amount of free tubulin relative to polymerized microtubules |
| TTL catalytic-dead construct (TTL-E331Q) (protein) MYTFVVRDENSSVYAEVSRLLLATGHWKRLRRDNPRFNLMLGERNRLPFGRLGHEPGLVQLVNYYRGADKLCRKASLVKLIKTSPELAESCTWFPESYVIYPTNLKTPVAPAQNGIQPPISNSRTDEREFFLASYNRKKEDGEGNVWIAKSSAGAKGEGILISSEASELLDFIDNQGQVHVIQKYLEHPLLLEPGHRKFDIRSWVLVDHQYNIYLYREGVLRTASEPYHVDNFQDKTCHLTNHCIQKEYSKNYGKYEEGNEMFFKEFNQYLTSALNITLESSILLQIKHIIRNCLLSVEPAISTKHLPYQSFQLFGFDFMVDEELKVWLIQVNGAPACAQKLYAELCQGIVDIAISSVFPPPDVEQPQTQPAAFIKL | Both TTL and TTL-E331Q overexpression increased the amount of free tubulin relative to polymerized microtubules |
